Test [1] has as its target T1, propargylated ubiquitin (Ub-PA) (UniProt P0CG48 1-75, propargylamine coupled to the C-terminus of ubiquitin 1-75). Kind of test: suicide probe reaction (covalent adduct, SDS-PAGE, Coomassie); DUB prediluted to 10 µM, combined 1:1 with 100 µM probe in 20 mM TRIS pH 7, 150 mM NaCl, 10 mM DTT; 16 h at 4 °C; shifted band on Coomassie-stained gel. The following applies: both partners purified.

Test [2] deals with T1, propargylated ubiquitin (Ub-PA). The test is described as follows: crystal structure; covalent complex of ZUFSP^232-578 and Ub-PA (100 µM + 200 µM, 18 h, 4 °C, SEC); crystals from 0.2 M sodium malonate pH 5, 20% PEG 3350, 4 °C. The following applies: both partners purified.

Results on 3 molecules are retold here after PMC5824887, “A family of unconventional deubiquitinases with modular chain specificity determinants” (Nature Communications, 2018).

B1: Mug105 from the fission yeast Schizosaccharomyces pombe (enzyme, S. pombe, UniProt O13979 1-244, looked up)
chain: MSKCLQQLKRQLQHFGIDGCSLADGDIDYFFTVTGIDRGWGCGWRNIQMLISWLQYTNPNWFKRNFSSGNYEINSLQSLLLSAWMKGIDAEGYAQLGDNLHGKWIGATEVYSLFTGLFVNVALVDFDFRSEASASNALFLYVKKHFESSNDTSNVSPCYLQFQGHSIIIIGFCSSLETLVVLDPDRYQSVQKKFVNIADFNHCYMRKKRSLKFSQFQLVHFKQNIFLNDFSSKLEVRSTRISDF
notes: Mug105, S. pombe, cloned from genomic DNA; consists only of the core catalytic domain; source: E. coli Rosetta (DE3)pLysS, purified (HisTrap, tag removal with Senp1, SEC); not shown: His6, N-terminal, cleaved; Smt3, N-terminal, cleaved
For B1, the binding result in test [1] is on record as “binds”.

B2: human ZUFSP, full length, bacterially expressed (enzyme, UniProt Q96AP4 1-578, looked up)
chain: MLSCNICGETVTSEPDMKAHLIVHMESEIICPFCKLSGVNYDEMCFHIETAHFEQNTLERNFERINTVQYGTSDNKKDNTLQCGMEVNSSILSGCASNHPKNSAQNLTKDSTLKHEGFYSENLTESRKFLKSREKQSSLTEIKGSVYETTYSPPECPFCGKIEEHSEDMETHVKTKHANLLDIPLEDCDQPLYDCPMCGLICTNYHILQEHVDLHLEENSFQQGMDRVQCSGDLQLAHQLQQEEDRKRRSEESRQEIEEFQKLQRQYGLDNSGGYKQQQLRNMEIEVNRGRMPPSEFHRRKADMMESLALGFDDGKTKTSGIIEALHRYYQNAATDVRRVWLSSVVDHFHSSLGDKGWGCGYRNFQMLLSSLLQNDAYNDCLKGMLIPCIPKIQSMIEDAWKEGFDPQGASQLNNRLQGTKAWIGACEVYILLTSLRVKCHIVDFHKSTGPLGTHPRLFEWILNYYSSEGEGSPKVVCTSKPPIYLQHQGHSRTVIGIEEKKNRTLCLLILDPGCPSREMQKLLKQDIEASSLKQLRKSMGNLKHKQYQILAVEGALSLEEKLARRQASQVFTAEKIP
notes: Zn-finger and UFSP domain protein (ZUFSP), human, cloned from HEK293 cDNA; also called ZUP1; C6orf113; source: E. coli Rosetta (DE3)pLysS, purified (HisTrap, tag removal with Senp1, SEC); not shown: His6, N-terminal, cleaved; Smt3, N-terminal, cleaved
Turning to B2, the binding result in test [1] is on record as “binds”.

B3: ZUFSP^232-578 (domain or fragment, human, UniProt Q96AP4 232-578, looked up)
chain: GDLQLAHQLQQEEDRKRRSEESRQEIEEFQKLQRQYGLDNSGGYKQQQLRNMEIEVNRGRMPPSEFHRRKADMMESLALGFDDGKTKTSGIIEALHRYYQNAATDVRRVWLSSVVDHFHSSLGDKGWGCGYRNFQMLLSSLLQNDAYNDCLKGMLIPCIPKIQSMIEDAWKEGFDPQGASQLNNRLQGTKAWIGACEVYILLTSLRVKCHIVDFHKSTGPLGTHPRLFEWILNYYSSEGEGSPKVVCTSKPPIYLQHQGHSRTVIGIEEKKNRTLCLLILDPGCPSREMQKLLKQDIEASSLKQLRKSMGNLKHKQYQILAVEGALSLEEKLARRQASQVFTAEKIP
notes: In the crystal the catalytic Cys-360 is covalently coupled to Ub-PA; also called the construct used for crystallization; source: E. coli Rosetta (DE3)pLysS, purified (HisTrap, tag removal with Senp1, SEC); not shown: His6, N-terminal, cleaved; Smt3, N-terminal, cleaved
As to B3, in test [2], the binding result is listed as “binds”.
